The values below come from the DeepSol protein solubility set.

This series is described as follows: soluble on expression in E. coli; label from the status in PepcDB or PDB records.
As to “MAHHHHHHMKYNEAQMRFYLLCLNMKQANTKEDKSQKISNSSTIDEIEEEQLYTGPLKIEQLLAKGFVKRDLELLKEGGLQTVECVAYAPMRTLCAIKGISEQKAEKLKKACKELCNSGFCNAIDYHDARQNLIKFTTGSKQLDALLKGGIETGGITELFGEFRTGKSQLCHTLAITCQLPIEQSGGEGKCLWIDTEGTFRPERIVAIAKRYGLHPTDCLNNIAYAKAYNCDHQTELLIDASAMMADARFALLIVDSATALYRSEYIGRGELANRQSHLCRFLRGLQRIADIYGVAVIITNQVVAKVDAMSMFGGHEKIPIGGNIIAHASQTRLYLRKGRGESRICKIYDSPVLPEGEAVFAITEGGIADYEEK”, the “soluble on expression in E. coli” value is given as “not soluble”.
Next, “MPGIDKLPIEETLEDSPQTRSLLGVFEEDATAISNYMNQLYQAMHRIYDAQNELSAATHLTSKLLKEYEKQRFPLGGDDEVMSSTLQQFSKVIDELSSCHAVLSTQLADAMMFPITQFKERDLKEILTLKEVFQIASNDHDAAINRYSRLSKKRENDKVKYEVTEDVYTSRKKQHQTMMHYFCALNTLQYKKKIALLEPLLGYMQAQISFFKMGSENLNEQLEEFLANIGTSVQNVRREMDSDIETMQQTIEDLEVASDPLYVPDPDPTKFPVNRNLTRKAGYLNARNKTGLVSSTWDRQFYFTQGGNLMSQARGDVAGGLAMDIDNCSVMAVDCEDRRYCFQITSFDGKKSSILQAESKKDHEEWICTINNISKQIYLSENPEETAARVNQSALEAVTPSPSFQQRHESLRPAAGQSRPPTARTSSSGSLGSESTNLAALSLDSLVAPDTPIQFDIISPVCEDQPGQAKAFGQGGRRTNPFGESGGSTKSETEDSILHQLFIVRFLGSMEVKSDDHPDVVYETMRQILAARAIHNIFRMTESHLLVTCDCLKLIDPQTQVTRLTFPLPCVVLYATHQENKRLFGFVLRTSSGRSESNLSSVCYIFESNNEGEKICDSVGLAKQIALHAELDRRASEKQ”: “not soluble”.
With “MIPISVLVTNAGTVSFHIKGEYNRDRPSKFSDVFRPVVTWNLTRKCNLKCLHCYINASPEGEDGLTTEEALGLIDEMAEMKIPLIIMSGGEPLMRRDFFELASYARSKGIKLALSTNGTLISESVAKRLKELDFSYVGISLDSYDPEFHDKFRGLNGAFNMTVKGIGNAINVGLNVGLRFTITAKNIHQVDEYMKLALKLGVKRITFYHLSASGRGRELREWMYTLEEYVSFINKMIDYAIKLSGKIEIETTLGQFDGVYIAKKLARNEEELEKYLKFVENSGGCGRKMISIYPNGDVYPCQFIDFYKLGNVREKPLKEIIKNIPDLFINTDKYLKGRYCDKCEYKSACKGGDRARAYYWNEDIYGDDPLCPLKTLHI” the entry was “not soluble”; with “MSERPDLVDPLPEDEPLPGENIPDTPEGDDPLDPDTQNEVEDPRR”, “not soluble”.
For “MGSDKIHHHHHHMTERFQQKNISVPDGIWIMKQTWNDVLFAHWPVDVSILRALVPSVLELDTYNGQAWISMLPFMLTNLRARYLPVIPGARAFPELNLRTYVTYKGKPGIYFFSLDADHRLAVLGARTFFHLPYFYADMKSEKNGDAIDYVSKRKNDKEAAFHAAYRPISAPFTAEKDSLDYWLTDDTGSTPLIAISSITKTSIIIRGCCKTPKQKFQSIR”, the “soluble on expression in E. coli” value is listed as “not soluble”.
Next, “MGSDKIHHHHHHMVQAWYMDESTADPRKPHRAQPDRPVSLEQLRTLGVLYWKLDADKYENDPELEKIRKMRNYSWMDIITICKDTLPNYEEKIKMFFEEHLHLDEEIRYILEGSGYFDVRDKEDKWIRISMEKGDMITLPAGIYHRFTLDEKNYVKAMRLFVGEPVWTPYNRPADHFDARVQYMSFLEGTA”: “soluble”; “MRVCLLASGSKGNSLFIETGESRILIDAGLSARELVRRLSLIGVDAAQLDALFISHEHTDHVRGAGVLARKYRIPVHVSYPTHREISGQIHGVYVTEFESGYSFTFRDLLVDPFRITHDACDPVGFTVESREGKVGIATDLGTATRLVADKLAGCRALVVESNHDEGMLMDGPYPWHLKQRIKSRHGHLSNNDTAALLAEVINPGLEGLFLAHLSEVNNDPVMARQVTASFLAGQNICSPRLVVGDQYRPSELLNILEHHHHHH”: “not soluble”; “MDHQLSQHDIFISQDGQLQLTVAVDTETVWLTQAEICVLFDRERSVITKHINNVFKEGELERDSVCAIFARTADDGKTYQTQYFNLDVIISVGYRVKSKRGVQFRQWATNTLKQHLLQGYTLNQQRLVQRGIEFNQALALLSKTLTNQALINPDGQAVVNVIAEYARSWSLLQGYDEQSLTEITHKQQQMQPLALDEVLAAIAALKTNLIAKGEATDLFAQLRGNGLASSIATIEQGFGGEWFYPNVASRAAHLLYFIIKNHPFADGNKRTGSFLFLWYLQQNQHLLAKPVSEQINDTTLVALALLVAESLPDQKELMIRLIEHFILLKDSEAAALEHHHHHH”: “soluble”.
Next, “MGSDKIHHHHHHMTQVPPSASPADLLAVLERIATALERQGAPAVPANSLDGADAFVWHAAESWLEPVCRVNRVDIALLQGIERQRQTLYDNTLRFAHGLPANNALLWGARGTGKSSLVKAVHASVNQALTAKGAAPVALVEIHREDIPTLPRLLRILAASGRPCLLFCDDLSFDGNDSSYKSLKAVLEGGIEGRPDTVIFYATSNRRHLLAREMVENEQSTALHAGEAVEEKVSLSDRFGLWLGFHNVDQPTYFDIVDGYARAYGLDIETEDLHREAREWSMARGSRSGRTAWQFIQDLAGRLGKTLE”: “not soluble”; “MGSDKIHHHHHHLFLNSLKLKDFRNYKSLQVDFSNSINVLIGDNAQGKTNLLEAIYILSMARSHRDNNDRDLINWSSDFSDITGEVQSKMGKFPLEVRITRTGKKVFVNHLTENRLSDYIGNLHTVLFAPEDLDLVKGSPGVRRKFIDSEFGQMSANYLFNLLQYRSVLKNRNAYLKNIKWIGNNPKIDEDYLKVLNDQLIDFGSEIIFQRFVLVKELEKYSYQIHKAISRNEKLTIKYASFSGIDDQSTKEEISKIFNNQLLKNKTRELFLKSTSVGPHHDDLKFSINGKEVGSFASQGQQRTTALSVRLAEIEMMKYETGEYPILLLDDVLSELDGDRQTQLLNFIQDKVQTFLTTTSLSDVERDLIKDPKIYQVKGGTLVNG”: “not soluble”; “IENYHVEEAENDLTQLANKVAVILENHEDQALARSITWELADNLTSIAIIQDEKNHWYSPNDKNRLSSITVEQIQHDKDLNKALKDHKKVSKRTGLSDTDTDNERLIVGVPYEKDGKKGMVFLSQSLLAVKDTTKHTTR”: “not soluble”.
Next, “MGSDKIHHHHHHMSPLFTNSEIISRVIKEHFNKNLDHYDGVKFSFMVLNKKNPSQMIIISSYPDEWVNLYKENKYQHIDPVVLASFNKISPFSWEKSLVINTRLQLAKIFDLSKKYDIINGYTFVLHDHGDNLAMLSIIVDNSYPDDVETFIEERKDIFQMLLIEAYEKIISLCKEMIGNKKQLNNKEIFSQRENEILYWASMGKTYLEVAIILGIKTSTVKFHIGNVVKKLGVLNAKHAIRLGVELQLIKPVQ”: “not soluble”; “AHHHHHHGSPDVYEPIMGAFSLARRLWKMIVEKKGLPTGDDVASLLENLGFERVCTGSGLAVFRNRFVIALLIPRENMIVVDFLSSSGELSDALELIAYYDKEIECYVVEILPSNELEYEENLGIEPVIIDGKTFELRSYPVLGDFKQGKDKVVLKIDREVYELWKESGKLDVCPVCGGHLRWKQGKALCTECGIEVVVDEEH”: “soluble”.
With “MAHHHHHHMSAAGRLIRIRKKSKWIDRRSKRIPHNGKDVWQFGEQPSCALCHVRFRFKQDYEAHKESELHQNRLRWVETMKWWEEIGEPHHQQHAASEWEWFRQRVLPAKAAAMGLSEEDAARELRRAVMHETPRWYSRIQPPNARSEIKEPRDQRWPSSPKW”, the “soluble on expression in E. coli” value is reported as “not soluble”.
For “MGSDKIHHHHHHMVIFTQVVECGSFSGAAIATGHSNSYISKTLNKLEARVGVRLLNRTTRSISLTPEGQVYYEQCQQLVLDAHDAVSLLTQSHIEPKGVLKISCPTSFAENHLQEVMSAFMHQYPEVNLVLDLNDRHVDLVQDGFDLVIRATDKLAESSLVCRKIYSCKAYTVASHDYLKRFGLPQSPEQLSEHQCICYSNLKQANKWIYSHSNGTDNQVEVKAKLLCNSASMELAMVLAGHGICRLPAFVMEKELQDNKLAILFNDYITPTIDVYAIYPSRKHLSPKVRCFIDLLVDKMPRSLL”, the “soluble on expression in E. coli” value is reported as “not soluble”.
As for “MGHHHHHHSHMPSLSTLRMRRCPSSLWIRFGYDPRKNPDAKIYQVLDFRIRCGMKHGYAPSDLPVKAKRSTYNYSLPITVKKTSSQLVTMHDLKQGLGPSGTSGARKPASSKYKLKVSLQTLRDSVYIFREGALPPYRQMFYQLCDLNVEELQKIIHRNDGAENSCTERDGWCLPKTSDELRDTMSLMIRQTIRSKRPALFSSSAKADGGKEQLTYESGEDEEDEEEEEEEEEDFKPSDGSENEMETEILDYV”, the “soluble on expression in E. coli” value is “not soluble”.
With “MGSDKIHHHHHHMNQEDDAKLAYLMAVNAIQMTKARYCRFVDTKQWDRLRTLFTADCRFEGLGSAPDRADLDIFIQGISRRLAHVVSVHHCHMGEIELVGADEAKVIWAMEDHLEWQDSGEVVEAPGNRGFRGYGHYEECYVRQGDTWKISLLRLTRLGIHPIPDAQPRLGTGRLGANPDWLPSDRRLR” the entry was “not soluble”.
In the case of “MGSDKIHHHHHHMKIVVAKNIGFCFGVERAIRTVEELLDEGKKVVTDGEIVHNKQVMEQLTKKGLKVSSEMTDGEVFVVRAHGIPKDRLEELKKIFPEVVDLTCPIVSQLFKTAQRYAKERKVIVFGKEDHPEMVALRGYAPAIVTKVPFKLEEKKVVFLSQTTSSLEEYKEFVAAMIRMNEFEEAVFLNTICPVTVNREREVEELSKICDLSIVVGGKHSSNTGKLFRIASKHSKTIWIESPDELPADVVKYGTVCVFSGTSTPNSLIENVVRKLKEMEGKRDGTI”, the “soluble on expression in E. coli” value was “not soluble”.
Next, “MGYTLADKIWRSHVVRSAEGEPDLVYIDMHLLHEVNTPAAFAGLRAAGRTVRRPDLTLGTEDHNTPTDDVLRMITDPGAVEQLDHIRRNCRDFGIELYSLGDSARGIVHVIGPELGLTQPGMTLVCCDSHTSTHGAFGVLAFGIGTSQVEHVLATQTLPMAPMQN”: “not soluble”.
With “MKPKETVCFNIKYSWHAISRMYNERASKYGTTAAVGFILLNIDVEKGTAATHIGPALGMEATSLSRVFNTMEQDGLIERRNDSSDKRKVTIFLTALGKDKRQIAKDFVLDFNNKVREQVSESKLNTFFEVLHEIQSIIDNKNTSLT” the entry was “soluble”; with “MNPSMKQKQEEIKENIKNSSVPRRTLKMIQPSASGSLVGRENELSAGLSKRKHRNDHLTSTTSSPGVIVPESSENKNLGGVTQESFDLMIKENPSSQYWKEVAEKRRKALYEALKENEKLHKEIEQKDNEIARLKKENKELAEVAEHVQYMAELIERLNGEPLDNFESLDNQEFDSEEETVEDSLVEDSEIGTCAEGTVSSSTDAKPCI”, “soluble”.
With “MGSDKIHHHHHHMSQSIRQAVMQASQAWIADFNRQAFADCIARYLPEAQMQVSPFGRFDGVEAISQFWLGFAQQNPGELVYRNVEIKVLSDSQAILSANWRMNIASGFISKELWTLADDGHWYLEEDDFSVLTQLSEPLAPRMRSALVLVDLQNDYFKGGRFALDNCEAAAANAAKLLHHFRSNQLPVIHVQHIFKDPEASFFQAGTQGVEIADMVAPKGNEPVIIKHYVDSFIDTALSQTLIEMGIDKLVVVGAMAQACVQTLCRSAVKAGFECEVISDAIAAPSLSWESQDLSGEQLVAANLISLSFGGAKALSLDDWLILERLAG” the entry was “not soluble”.
